Article PMC3329556, “Insights into the Mechanism of Bovine CD38/NAD+Glycohydrolase from the X-Ray Structures of Its Michaelis Complex and Covalently-Trapped Intermediates” (PLoS ONE, 2012)

Substrate: NC(=O)c1ccc[n+]([C@@H]2O[C@H](COP(=O)(O)OP(=O)(O)OC[C@H]3O[C@@H](n4cnc5c(N)ncnc54)[C@H](O)[C@@H]3O)[C@@H](O)[C@H]2O)c1
Assay: radiometric HPLC assay, initial rates, Michaelis-Menten fit
Type: biochemical, Bos taurus
Settings: 10 mM potassium phosphate pH 7.4, 37°C, 14C-labelled NAD+ tracer
From the text: radiometric HPLC assay, initial rates, Michaelis-Menten fit on bCD38 (bovine CD38/NAD+glycohydrolase)

Protein	Km	kcat	kcat/Km
bCD38 (bovine CD38/NAD+glycohydrolase) (Bos taurus) (protein, soluble ecto-domain residues 32-278 (first 31 residues removed), alpha-factor secretion signal, Pichia pastoris GS115 or X33, mono-N-glycosylated at Asn201, back-to-back homodimer in crystal) YKWHYSGLNRWHGAGSTADFQKIIQERCDTYTQTIRPGSRSRNCQAIRQAFMSAFISKDPCKATKEDYNSLINLAPPTVPCGQQVFWSKTKELAHEYAKRRRLMTLEDTLLGYLADGLRWCGEPGSSDLNIWSCPDWRKDCRTNYLSVFWEVLSERFAESACNTVRVVLNGSLENAFDSMSIFGRVEAPNLRPQVELEAWLVHDTGKPPSDSCSGSSIRKLKSILDGRNVKFRCMDNLSRDQFLQRS	17.1 ± 0.3 µM	57.9 ± 1.9 s⁻¹	3.38e+06 ± 130000 M⁻¹ s⁻¹
bCD38 (bovine CD38/NAD+glycohydrolase) (Bos taurus; S185A) (protein, soluble ecto-domain residues 32-278 (first 31 residues removed), alpha-factor secretion signal, Pichia pastoris GS115 or X33, mono-N-glycosylated at Asn201, back-to-back homodimer in crystal) YKWHYSGLNRWHGAGSTADFQKIIQERCDTYTQTIRPGSRSRNCQAIRQAFMSAFISKDPCKATKEDYNSLINLAPPTVPCGQQVFWSKTKELAHEYAKRRRLMTLEDTLLGYLADGLRWCGEPGSSDLNIWSCPDWRKDCRTNYLSVFWEVLAERFAESACNTVRVVLNGSLENAFDSMSIFGRVEAPNLRPQVELEAWLVHDTGKPPSDSCSGSSIRKLKSILDGRNVKFRCMDNLSRDQFLQRS	18.7 ± 2.8 µM	38.2 ± 1.3 s⁻¹	2.04e+06 ± 310000 M⁻¹ s⁻¹
bCD38 (bovine CD38/NAD+glycohydrolase) (Bos taurus; W168A) (protein, soluble ecto-domain residues 32-278 (first 31 residues removed), alpha-factor secretion signal, Pichia pastoris GS115 or X33, mono-N-glycosylated at Asn201, back-to-back homodimer in crystal) YKWHYSGLNRWHGAGSTADFQKIIQERCDTYTQTIRPGSRSRNCQAIRQAFMSAFISKDPCKATKEDYNSLINLAPPTVPCGQQVFWSKTKELAHEYAKRRRLMTLEDTLLGYLADGLRWCGEPGSSDLNIWSCPDARKDCRTNYLSVFWEVLSERFAESACNTVRVVLNGSLENAFDSMSIFGRVEAPNLRPQVELEAWLVHDTGKPPSDSCSGSSIRKLKSILDGRNVKFRCMDNLSRDQFLQRS	24.6 ± 4.2 µM	19.6 ± 0.9 s⁻¹	800000 ± 140000 M⁻¹ s⁻¹
bCD38 (bovine CD38/NAD+glycohydrolase) (Bos taurus; R216A) (protein, soluble ecto-domain residues 32-278 (first 31 residues removed), alpha-factor secretion signal, Pichia pastoris GS115 or X33, mono-N-glycosylated at Asn201, back-to-back homodimer in crystal) YKWHYSGLNRWHGAGSTADFQKIIQERCDTYTQTIRPGSRSRNCQAIRQAFMSAFISKDPCKATKEDYNSLINLAPPTVPCGQQVFWSKTKELAHEYAKRRRLMTLEDTLLGYLADGLRWCGEPGSSDLNIWSCPDWRKDCRTNYLSVFWEVLSERFAESACNTVRVVLNGSLENAFDSMSIFGAVEAPNLRPQVELEAWLVHDTGKPPSDSCSGSSIRKLKSILDGRNVKFRCMDNLSRDQFLQRS	22.9 ± 3.4 µM	25.4 ± 1.1 s⁻¹	1.1e+06 ± 170000 M⁻¹ s⁻¹
bCD38 (bovine CD38/NAD+glycohydrolase) (Bos taurus; K120A) (protein, soluble ecto-domain residues 32-278 (first 31 residues removed), alpha-factor secretion signal, Pichia pastoris GS115 or X33, mono-N-glycosylated at Asn201, back-to-back homodimer in crystal) YKWHYSGLNRWHGAGSTADFQKIIQERCDTYTQTIRPGSRSRNCQAIRQAFMSAFISKDPCKATKEDYNSLINLAPPTVPCGQQVFWSATKELAHEYAKRRRLMTLEDTLLGYLADGLRWCGEPGSSDLNIWSCPDWRKDCRTNYLSVFWEVLSERFAESACNTVRVVLNGSLENAFDSMSIFGRVEAPNLRPQVELEAWLVHDTGKPPSDSCSGSSIRKLKSILDGRNVKFRCMDNLSRDQFLQRS	27.7 ± 3.4 µM	47.1 ± 2.1 s⁻¹	1.7e+06 ± 220000 M⁻¹ s⁻¹
bCD38 (bovine CD38/NAD+glycohydrolase) (Bos taurus; E218Q) (protein, soluble ecto-domain residues 32-278 (first 31 residues removed), alpha-factor secretion signal, Pichia pastoris GS115 or X33, mono-N-glycosylated at Asn201, back-to-back homodimer in crystal) YKWHYSGLNRWHGAGSTADFQKIIQERCDTYTQTIRPGSRSRNCQAIRQAFMSAFISKDPCKATKEDYNSLINLAPPTVPCGQQVFWSKTKELAHEYAKRRRLMTLEDTLLGYLADGLRWCGEPGSSDLNIWSCPDWRKDCRTNYLSVFWEVLSERFAESACNTVRVVLNGSLENAFDSMSIFGRVQAPNLRPQVELEAWLVHDTGKPPSDSCSGSSIRKLKSILDGRNVKFRCMDNLSRDQFLQRS	24.7 ± 5.7 µM	0.03 ± 0.002 s⁻¹	1210 ± 300 M⁻¹ s⁻¹
